This is an account of results in a protein production outcome set (Wang et al. 2014).

The data set can be described thus: label from the status in PepcDB records.

For “MVVANDLSSKILPRVLIVSRRTLRKNKYVDFVGEYHLDLIVSSGAVPVIVPRVNGIHSMLQSFEPIHGVLLCEGEDVDPSLYADDELSDLSPEDMEEIKKAHAEDMTIDREKDSIELTLARLCLERNIPFLGICRGSQILNVAAGGTLYQDIDKELGTTMTTTNHIDYDNYDGHRHEARIVEETPLHKLFEEMEIMVNSYHHQGVKRLAQRFVPMAYAPDGLIEGFYDPNRYDPKEGQFLMGLQFHPERMRLPGSDEFDYPGCALVYQEFVKAVIAFQKKQVNATQVEMKRKTTTLVKSFSQAEFLEVRDSFVLHTYRLYVLPLNIGFSDMAE”, the protein production result is “failed”.
Regarding “MVVLAVLLPVVFGALLLLGLPRALGVLGAGLSFLLNLYLFLTHPGGVAHAFQAPLLPGAGVYWAFGLDGLSALFFLTIALTVFLGALVARVEGRFLGLALLMEGLLLGLFAARDLLVFYVFFEAALIPALLMLHLYGGEGRTRALYTFVLFTLVGSLPMLAAVLGARLLSGSPTFLLEDLLAHPLQEEAAFWVFLGFALAFAIKTPLFPLHAWLPPFHQENHPSGLADALGTLYKVGVFAFFRFAIPLAPEGFAQAQGLLLFLAALSALYGAWVAFAAKDFKTLLAYAGLSHMGVAALGVFSGTPEGAMGGLYLLAASGVYTGGLFLLAGRLYERTGTLEIGRYRGLAQSAPGLAALALILFLAMVGLPGLSGFPGEFLTLLGAYKASPWLAALAFLSVIASAAYALTAFQKTFWEEGGSGVKDLAGAEWGFALLSVLALLLMGVFPGYFARGLHPLAEAFAKLLGGGA”, the protein production result was “failed”.
As for “MVWGKGLARRLYGLTGVVWSKYLDIDERGRLIVKLKGYKIDIAKLVSDKQLPGAHIRILPIIRYMMDQVYEAFMEAFRKFGYKGAFKPVYPLKSNSTPIVVDTIWRYGIKYSWGFNAGTYPEVKLISKYINEKPRLLVVDGIKDNKLLDLLSKMCDSWEIIVDIESMRDADLLSKYQDLNIGLRVKVTSKSSGLWSHSSGLDSKFGLLINTLDEMVEKHPWVPNRTVLLHVHAGSQITDKNRLEDIIRETIILYNNLVKTGFKNIRYIDFGGGLAYPYIEASNHVFSANYSLNEYAEILVKELVKSAENTPDIVFEGGRYIVAPHRITVTKIIDTRPYSTSDRGETSYPIVEEIKNTENIKELVYVSRKAREVITRLMLKFPINIESRRILEKLLTSINEAITSKAYEIIHRDNDKALEELIKTPNYVLEELVSPTRRFFASFSLFSHLPDTIIADQYFKIIPLQRLNEKPEVLGVISDLTCDSMGEYSSFITFLPNNIEYETEDLFTSLDHKLMFIPGKTLRLKGVPLHIPRKNEDYYIAFLDTGAYQDMLSMNHNLLNGYPEIIIDIINDNLKIIYENLESAENYPL”, the protein production entry is “failed”.
With “MVWHYSNIMHKKSKAQLQDYFKDLTAIGNASSEQMEANRDGIQGETEENINPPPQNPKKRLSLPNLSSPSLAAEAENLESAGQPGSDYLSNSFGQANKANVAVAPVNSDYIAPEKLEDQPGDFFGGKRWFWLGGILVLLVGGTALTLPKALEMVNGWRQEAQLKAYEQEQHQDSEVLRLALLPPDQRRSKLEAIANQEVLSLERSRARFLLAGDLLAEFEGGPALRVLEGLEVQYPVLAPYILLMRGRGYQLSNENDQAEATWQDILDQYPDSPVVVNALENLGSLDETYWQQAIADHPGHPRTLAILHQQLESEPNALEIQRQILQNHPTDGRTAAVINSLTANRQGELTPEDWQAMGDNFWHRRIYNQAIAPYEKAPSNARNLYRLARAQQISKLDNEAKENYRQLIATYPDSEETALALRRLAELVPPREGVQYLQQLEQQFPDQGASALAARIDLLAKFDANQAQQARQALLQKYPNSDAAADYRWRQAQEFAKAGNYTEAWRWAKEIANQNPQSDVTPKAIFWIGKWAQQLGRSADSKAAFETVLAKYPQSYYAWRSAVLLGWQVGDFNSVRFLNPPVTVPDQRPLPPAGSPTFRELYRLAQDQEAIELFNAEVRARAEGEATPELTVNEGFTEALLKLTQQEYLQGINQVLNLRNPEDPEQRKQWEELRSTRDYWQTLFPFPYQQLIFEWSEKRQVNPFLVTALIRQESRFEKNIQSPVGATGLMQIMPATAEWIAPQIGLKEYSLTDPTDNVNMGTWYFDHTHKTYNNNSALAVASYNAGPGNVAKWLQEFNNADPDLFVERIPFAETKGYVESVFGNYWNYLRIYDPDVEKLMGQVGKN”, the protein production result is reported as “failed”.
Take “MVWPHLYFSELEAQHIMTSIISSSWFKFSVVAASITGIMMLSGCAKKEAQDLTTLNIGFQKYGLLPIVKERGELDKILKKEGITIKWVEFPAGPQLLEGLNVGSVVFGEAGEAPPIFAQAANSNLVYVANQPAAPNAEALIVQKNSSVHSVQDLKGKRIALNKGSNVHYLLLKLLEKNHLTLNDIQVVYLPPADARAAFEKGAVDAWVIWDPFFAAAEQQIGARVIATGQDLVSNHQFYLADRKFAQNHPEVLKTLVKELNQSTEWVKTHQDDAAKLLEKPTALDFNILKTSISRMGFGVTPLSNTVINEQQQVADAFYQQKLIPQPLKIQDAILKGEIK”: the protein production result was “failed”.
